Here are results for two substances from paper PMC6395754.

The target of the experiment is profilin1 (PFN1) (UniProt P07737). As to the kind of experiment: GST-PFN1 pull-down from cell lysate. Conditions: reference: wild type.

Regarding DIAPH1 (from UniProt O60610) S665A, under “sites S665”, the “binding against the reference” value is “stronger”.
Turning to DIAPH1 (from UniProt O60610) S629A, the “binding against the reference” value (sites S629) is on record as “stronger”.
